From patent US7601333B2, “Use of a tetrapeptide AcSDKP (SEQ ID No. 1) analog resistant to the angiotensin I converting enzyme for measuring glomerular filtration rate in a human or an animal and kit containing same” (Assistance Publique-Hopitaux de Paris, priority 2003, dated 2009) come the findings set out here.

No end group written: not given here.

The target of test [1] is T1, rat lung ACE (angiotensin I converting enzyme in ground rat lung material) (rat, UniProt P47820 36-1313, limits assumed).
T1 sequence (looked up): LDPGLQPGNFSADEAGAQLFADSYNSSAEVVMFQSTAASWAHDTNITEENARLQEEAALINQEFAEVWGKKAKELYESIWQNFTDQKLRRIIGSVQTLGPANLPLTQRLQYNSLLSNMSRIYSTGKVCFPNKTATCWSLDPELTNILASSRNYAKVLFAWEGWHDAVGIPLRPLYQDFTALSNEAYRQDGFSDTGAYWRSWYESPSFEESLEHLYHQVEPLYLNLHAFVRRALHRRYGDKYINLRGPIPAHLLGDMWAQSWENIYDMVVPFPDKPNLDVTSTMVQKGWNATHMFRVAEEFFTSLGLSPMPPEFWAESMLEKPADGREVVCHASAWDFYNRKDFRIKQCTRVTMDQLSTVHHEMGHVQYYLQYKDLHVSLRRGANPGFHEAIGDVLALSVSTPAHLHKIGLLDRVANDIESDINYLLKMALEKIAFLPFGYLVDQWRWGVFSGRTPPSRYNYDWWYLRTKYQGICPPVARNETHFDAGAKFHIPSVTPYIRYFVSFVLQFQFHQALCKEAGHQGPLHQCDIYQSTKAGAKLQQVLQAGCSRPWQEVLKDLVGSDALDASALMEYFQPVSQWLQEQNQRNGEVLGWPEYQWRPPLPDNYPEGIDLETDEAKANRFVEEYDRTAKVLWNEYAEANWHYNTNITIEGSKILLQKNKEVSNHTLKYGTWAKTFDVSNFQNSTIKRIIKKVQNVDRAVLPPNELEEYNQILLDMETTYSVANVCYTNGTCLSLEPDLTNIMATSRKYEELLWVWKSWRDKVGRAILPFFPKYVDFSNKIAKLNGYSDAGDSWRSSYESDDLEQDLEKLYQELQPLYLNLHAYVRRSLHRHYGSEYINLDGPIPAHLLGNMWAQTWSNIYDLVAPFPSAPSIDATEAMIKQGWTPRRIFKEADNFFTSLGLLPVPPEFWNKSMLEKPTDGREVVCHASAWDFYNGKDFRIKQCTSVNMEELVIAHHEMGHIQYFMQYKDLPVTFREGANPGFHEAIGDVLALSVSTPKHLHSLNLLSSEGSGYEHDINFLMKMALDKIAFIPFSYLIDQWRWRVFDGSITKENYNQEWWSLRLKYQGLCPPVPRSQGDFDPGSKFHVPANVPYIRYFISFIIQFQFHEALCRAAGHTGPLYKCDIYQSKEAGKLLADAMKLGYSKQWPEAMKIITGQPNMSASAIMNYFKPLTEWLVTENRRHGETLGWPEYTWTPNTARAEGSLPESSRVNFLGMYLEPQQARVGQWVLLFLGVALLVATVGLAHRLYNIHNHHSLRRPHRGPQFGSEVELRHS
Briefly: cell-based or functional assay.

In test [2] the target is human converting enzyme (human ACE) (human, UniProt P12821 30-1306, limits assumed). Briefly: cell-based or functional assay.

Take Ac-SDKP-NH2 [N-acetyl-Ser-Asp-Lys-Pro-NH2 (AcSDKP-NH2)]: in test [1], the “in vitro degradation: % of peptide assayed relative to the control (enzyme immunoassay), T30 min, no captopril” value turned out to be 100%; the “in vitro degradation: % of peptide assayed relative to the control (enzyme immunoassay), T30 min, with captopril 10 uM” value came to 125%; the “in vitro degradation: % of peptide assayed relative to the control (enzyme immunoassay), T60 min, no captopril” value was 65%; the “in vitro degradation: % of peptide assayed relative to the control (enzyme immunoassay), T60 min, with captopril 10 uM” value is 65%. In test [1], the “in vitro degradation: % of peptide assayed relative to the control (enzyme immunoassay), T120 min, no captopril” value was found to be 95%; the “in vitro degradation: % of peptide assayed relative to the control (enzyme immunoassay), T120 min, with captopril 10 uM” value amounted to 109%; the “in vitro degradation: % of peptide assayed relative to the control (enzyme immunoassay), T240 min, no captopril” value amounted to 126%; the “in vitro degradation: % of peptide assayed relative to the control (enzyme immunoassay), T240 min, with captopril 10 uM” value is 136%. Besides, in test [2], the “in vitro degradation: % of peptide assayed relative to the control (enzyme immunoassay), T10 min, no captopril” value came to 79%; the “in vitro degradation: % of peptide assayed relative to the control (enzyme immunoassay), T10 min, with captopril 10 uM” value amounted to 90%; the “in vitro degradation: % of peptide assayed relative to the control (enzyme immunoassay), T30 min, no captopril” value was found to be 100%; the “in vitro degradation: % of peptide assayed relative to the control (enzyme immunoassay), T30 min, with captopril 10 uM” value is 162%. For the same molecule, in test [2], the “in vitro degradation: % of peptide assayed relative to the control (enzyme immunoassay), T60 min, no captopril” value was found to be 116%; the “in vitro degradation: % of peptide assayed relative to the control (enzyme immunoassay), T60 min, with captopril 10 uM” value amounted to 78%; the “in vitro degradation: % of peptide assayed relative to the control (enzyme immunoassay), T120 min, no captopril” value came out at 116%; the “in vitro degradation: % of peptide assayed relative to the control (enzyme immunoassay), T120 min, with captopril 10 uM” value worked out at 95%. Further, in test [2], the “in vitro degradation: % of peptide assayed relative to the control (enzyme immunoassay), T240 min, no captopril” value came out at 107%; the “in vitro degradation: % of peptide assayed relative to the control (enzyme immunoassay), T240 min, with captopril 10 uM” value amounted to 104%; the “in vitro degradation: % of peptide assayed relative to the control (enzyme immunoassay), T1440 min, no captopril” value was determined as 86%; the “in vitro degradation: % of peptide assayed relative to the control (enzyme immunoassay), T1440 min, with captopril 10 uM” value was determined as 117%.
For the molecule Ac-SDKP [N-acetyl-Ser-Asp-Lys-Pro (AcSDKP)], in test [1], the “in vitro degradation: % of peptide assayed relative to the control (enzyme immunoassay), T30 min, no captopril” value is 28%; the “in vitro degradation: % of peptide assayed relative to the control (enzyme immunoassay), T30 min, with captopril 10 uM” value was determined as 129%; the “in vitro degradation: % of peptide assayed relative to the control (enzyme immunoassay), T60 min, no captopril” value came out at 9%; the “in vitro degradation: % of peptide assayed relative to the control (enzyme immunoassay), T60 min, with captopril 10 uM” value came out at 111%. For the same molecule, in test [1], the “in vitro degradation: % of peptide assayed relative to the control (enzyme immunoassay), T120 min, no captopril” value was 5%; the “in vitro degradation: % of peptide assayed relative to the control (enzyme immunoassay), T120 min, with captopril 10 uM” value stood at 75%; the “in vitro degradation: % of peptide assayed relative to the control (enzyme immunoassay), T240 min, no captopril” value was determined as 5%; the “in vitro degradation: % of peptide assayed relative to the control (enzyme immunoassay), T240 min, with captopril 10 uM” value stood at 89%. Also, in test [2], the “in vitro degradation: % of peptide assayed relative to the control (enzyme immunoassay), T10 min, no captopril” value was 82%; the “in vitro degradation: % of peptide assayed relative to the control (enzyme immunoassay), T10 min, with captopril 10 uM” value was 90%; the “in vitro degradation: % of peptide assayed relative to the control (enzyme immunoassay), T30 min, no captopril” value stood at 75%; the “in vitro degradation: % of peptide assayed relative to the control (enzyme immunoassay), T30 min, with captopril 10 uM” value stood at 100%. Besides, in test [2], the “in vitro degradation: % of peptide assayed relative to the control (enzyme immunoassay), T60 min, no captopril” value amounted to 50%; the “in vitro degradation: % of peptide assayed relative to the control (enzyme immunoassay), T60 min, with captopril 10 uM” value worked out at 85%; the “in vitro degradation: % of peptide assayed relative to the control (enzyme immunoassay), T120 min, no captopril” value turned out to be 25%; the “in vitro degradation: % of peptide assayed relative to the control (enzyme immunoassay), T120 min, with captopril 10 uM” value came to 85%. Moreover, in test [2], the “in vitro degradation: % of peptide assayed relative to the control (enzyme immunoassay), T240 min, no captopril” value worked out at 7% and the “in vitro degradation: % of peptide assayed relative to the control (enzyme immunoassay), T240 min, with captopril 10 uM” value was 100%.
